{"source": "paper doi:10.1101/2024.07.26.605324", "origin": "cited, not measured here", "biological_target": "His27 (position 27, …)", "test": "NMR", "details": "243–263 K; membrane-bound tetramer, wild type with both His19 and His27 tetrads", "note": "Values joined by “and” are separate entries in the source; they are usually repeats but may differ in a detail not shown here. Equal entries are not always repeated.", "data": [{"protein": "MLEPFQILSICSFILSALHFIAWTIGHLNQIKR", "note": "[Influenza B virus matrix protein 2 (BM2) proton channel (Influenza B virus)]", "values": [{"measurement": "pKa", "value": "5.9±0.1 and 5.8±0.1"}]}]}
